Results published in patent US20240343803A1 (SHANDONG SIMCERE BIOPHARMACEUTICAL, published 2024).

T1: full-length human TIGIT on CHO-K1 cells (CHO-K1 human TIGIT) (human, UniProt Q495A1 22-244)
T1 construct: NCBI XP_024309156.1; entry includes the signal peptide; also called high expression strain 1D2; medium expression strain 2D10
T1 sequence: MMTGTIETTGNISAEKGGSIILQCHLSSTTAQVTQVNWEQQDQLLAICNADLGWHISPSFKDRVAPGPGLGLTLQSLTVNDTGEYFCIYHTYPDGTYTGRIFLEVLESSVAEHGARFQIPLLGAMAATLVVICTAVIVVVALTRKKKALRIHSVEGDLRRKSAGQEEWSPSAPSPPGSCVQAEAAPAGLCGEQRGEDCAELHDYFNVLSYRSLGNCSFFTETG

T2: human TIGIT ECD-his (fusion protein of extracellular domain of human TIGIT and His-tag) (human)
T2 construct: entry includes the signal peptide, limits not readable here
T2 chain: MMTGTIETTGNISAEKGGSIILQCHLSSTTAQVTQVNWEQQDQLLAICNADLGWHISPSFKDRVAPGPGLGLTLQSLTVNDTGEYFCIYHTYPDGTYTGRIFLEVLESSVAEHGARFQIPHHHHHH

T3: human PVRIG-his (AcroBiosystems, Cat NO. PVG-H52H4) (human, UniProt Q6DKI7 41-171, limits assumed)
T3 construct: treated as the same protein; also called human PVRIG-His protein; Human PVRIG-His, Acro C227P1-9ARF1-T4
T3 sequence (looked up): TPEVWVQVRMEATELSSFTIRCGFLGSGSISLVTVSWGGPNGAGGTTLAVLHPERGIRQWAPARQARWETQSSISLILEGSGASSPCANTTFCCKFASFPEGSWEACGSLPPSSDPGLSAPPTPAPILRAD


How the values were obtained:
[1] = target: T4, full-length cynomolgus monkey TIGIT on CHO-K1 cells (CHO-K1 cynomolgus monkey TIGIT) (cynomolgus monkey); test: FACS, CHO-K1 cynomolgus monkey TIGIT cells
T4 construct: NCBI XP_015300911.1; also called cynomolgus monkey TIGIT cells
Procedure: (§1) The collected cells were washed once with PBS (Hyclone, Cat NO. SH30256), resuspended to 2×10⁵/50 μL with 1% BSA-PBS. The antibodies were diluted to 80 nM with 1% BSA-PBS (diluted by 3-fold serial dilution for 12 concentration points). The 50 μL cells were then mixed with 50 μL diluted antibodies, and then incubated at 4° C. for 60 minutes. […] After washing twice with PBS, the cell samples were resuspended with 1% BSA-PBS, 100 μL/well and then analyzed by flow cytometry (BD, Canto II).

[2] = target: T1, full-length human TIGIT on CHO-K1 cells …; test: competition FACS; blocked: Bio-CD155-His binding to CHO-K1 human TIGIT cells
Procedure: (§2) The collected cells were washed once with PBS (Hyclone, SH30256), resuspended to 2×10⁵/40 μL with 1% BSA-PBS. The antibodies were diluted to 210 nM with 1% BSA-PBS (diluted by 3-fold serial dilution for 12 concentration points). […] The 40 μL cells were then mixed with 40 μL diluted antibodies and 40 μL diluted Bio-CD155-His, and then incubated at 4° C. for 60 minutes. The cells were washed twice with PBS, resuspended with APC labeled streptavidin (dilution ratio 1:1700, Biolegend, 405243), 100 μL/well, and incubated at 4° C. for 40 minutes. The cell samples were washed twice with PBS, resuspended with 1% BSA-PBS (100 μL/well) and then analyzed by flow cytometry (BD, Canto II).

[3] = target: T2, human TIGIT ECD-his (fusion protein of …); test: BIAcore kinetics
[4] = target: T1, full-length human TIGIT on CHO-K1 cells …; test: FACS, competition: Bio-CD155-His to CHO-K1 human TIGIT
Procedure: as §2, with “CAT #SH30256),” for “SH30256),”, “BSA-PBS, 100 μL/well” for “BSA-PBS (100 μL/well)”, “II). […] [0300] (d) The effect of anti-TIGIT chimeric antibodies blocking the interaction between TIGIT ECD-mFc and CHO-K1 CD155 detected by FACS” for “II).”

[5] = target: T1, full-length human TIGIT on CHO-K1 cells …; test: FACS, CHO-K1 human TIGIT high expression strain
Procedure: as §1

[6] = target: T3, human PVRIG-his (AcroBiosystems, Cat …); test: ELISA, coated human PVRIG-his

T4 sequence (chain, as listed by the source limits assumed): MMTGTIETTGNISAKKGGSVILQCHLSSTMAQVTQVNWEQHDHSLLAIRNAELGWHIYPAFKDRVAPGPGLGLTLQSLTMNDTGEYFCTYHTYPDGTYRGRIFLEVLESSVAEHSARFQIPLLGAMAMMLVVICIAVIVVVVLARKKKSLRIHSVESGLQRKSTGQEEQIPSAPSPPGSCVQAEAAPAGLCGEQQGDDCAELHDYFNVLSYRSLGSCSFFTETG

Row | Binder | EC50 (read off the curve) [1] | IC50 (read off the curve) [2] | Kd [3] | koff [3] | kon [3] | IC50 [4] | EC50 (read off the curve) [5] | EC50 (read off the curve) [6]
1 | RG6058-hIgG1 (antibody, V domains shown, human IgG1 format by its name; also called Roche RG6058; control antibody RG6058) VH: EVQLQQSGPGLVKPSQTLSLTCAISGDSVSSNSAAWNWIRQSPSRGLEWLGKTYYRFKWYSDYAVSVKGRITINPDTSKNQFSLQLNSVTPEDTAVFYCTRESTTYDLLAGPFDYWGQGTLVTVSS VL: not shown | ~1 nM | ~0.3 nM | 0.163 nM | 0.000147 s⁻¹ | 903000 M⁻¹ s⁻¹ | 0.388 nM | ~0.6 nM | 
2 | SRF813-hIgG1 (antibody, V domains shown, human IgG1 format by its name) VH: QVQLVQSGAEVKKPGSSVKVSCKASGGTFSSAAISWVRQAPGQGLEWMGNIIPIVGIANYAQKFQGRVTITADESTSTAYMELSSLRSEDTAVYYCARDTGRGYTRHFWFDPWGQGTLVTVSS VL: DIQMTQSPSSLSASVGDRVTITCRASQSISSYLNWYQQKPGKAPKLLIYAASSLQSGVPSRFSGSGSGTDFTLTISSLQPEDFATYYCQQSDILYTFGGGTKVEIK |  |  |  |  |  |  |  | ~0.05 nM
